Assay results taken from patent US20100204147A1, “Methods For Delivering Thymosin Beta 4, Analogues, Isoforms and Other Derivatives” (REGENERX BIOPHARMACEUTICALS, INC., priority 2003, published 2010).

Experiments:
Assay in all cases: cell-based or functional assay
[1] = target: Human fibrinogen depleted of plasminogen, fibronectin and von Willebrand factor (human) (UniProt P02671)
[2] = target: Fibrin (made from human fibrinogen with bovine thrombin) (human) (UniProt P02671)
[3] = target: Recombinant γ-module comprising residues 148-411 of the human fibrinogen γ chain (human) (UniProt P02679)

Row | Substance | degree of factor XIIIa-mediated incorporation after 4 hours (spectrophotometric) (moles per mole) [1] | degree of factor XIIIa-mediated incorporation after 4 hours (spectrophotometric) (moles per mole) [2] | apparent Michaelis constant (Km) for the reaction of incorporation by factor XIIIa [3]
1 | FITC-labeled thymosin β4 (from UniProt P62328 2-44) (peptide) | 0.2 | 0.4 | –
2 | Synthetic thymosin β4 (from UniProt P62328 2-44) (peptide) | – | – | 183 µM
